Results: patent publication US20250051414A1
pKd: −log10 of the molar value.

How the values were obtained:
[1] = target: IL-2Rβ/γ Fc heterodimer (UniProt P14784); test: BLI (Octet RED384), biotinylated monomeric IL-2/Fc on streptavidin sensors, 1:1 kinetic fit
[2] = target: IL2-Ra ectodomain with C-terminal 6xHis tag (UniProt P01589); test: BLI (Octet RED384), biotinylated monomeric IL-2/Fc on streptavidin sensors, equilibrium binding
Sequence of UniProt P01589 (P01589 other isoform, or with tags, fused parts or gaps limits assumed): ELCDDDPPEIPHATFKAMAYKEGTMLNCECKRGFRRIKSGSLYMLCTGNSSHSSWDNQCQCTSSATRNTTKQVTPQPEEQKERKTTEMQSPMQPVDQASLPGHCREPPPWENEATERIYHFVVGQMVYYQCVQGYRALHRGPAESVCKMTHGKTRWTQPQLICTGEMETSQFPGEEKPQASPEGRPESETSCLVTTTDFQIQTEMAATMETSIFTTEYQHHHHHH

Sequence of UniProt P14784 (P14784 other isoform, or with tags, fused parts or gaps, chain 1 of 2): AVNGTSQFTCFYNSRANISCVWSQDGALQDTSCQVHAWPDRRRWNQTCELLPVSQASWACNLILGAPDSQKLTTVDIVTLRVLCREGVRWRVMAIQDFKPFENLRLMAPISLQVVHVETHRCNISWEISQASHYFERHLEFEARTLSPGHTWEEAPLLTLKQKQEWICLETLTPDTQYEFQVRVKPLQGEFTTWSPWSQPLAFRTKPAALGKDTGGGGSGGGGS
Sequence of UniProt P14784 (P31785 other isoform, or with tags, fused parts or gaps, chain 2 of 2, further chain): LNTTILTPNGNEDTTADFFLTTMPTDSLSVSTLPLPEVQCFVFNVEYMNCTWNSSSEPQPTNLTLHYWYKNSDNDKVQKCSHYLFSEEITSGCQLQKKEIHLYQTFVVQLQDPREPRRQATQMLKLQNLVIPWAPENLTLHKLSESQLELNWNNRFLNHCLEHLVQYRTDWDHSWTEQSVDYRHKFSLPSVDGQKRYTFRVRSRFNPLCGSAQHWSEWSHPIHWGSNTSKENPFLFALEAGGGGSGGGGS

Substance | pKd [1] | pKd [2]
F42Q N-Term (Fc fusion) | 8.55 | 8.02
H16N N-term (Fc fusion) | 7.65 | 9.37
N88D C-term (Fc fusion) | 7.62 | 9.00
R38Q N-term (Fc fusion) | 8.40 | 9.15
V91K C-term (Fc fusion) | 8.12 | 9.16
WT C-term (Fc fusion) | 8.52 | 9.27
WT N-term (Fc fusion) | 8.28 | 9.72
